B1: DNA mismatch repair protein Mlh1 (Homo sapiens), P40692 (parent)
chain: MSFVAGVIRRLDETVVNRIAAGEVIQRPANAIKEMIENCLDAKSTSIQVIVKEGGLKLIQIQDNGTGIRKEDLDIVCERFTTSKLQSFEDLASISTYGFRGEALASISHVAHVTITTKTADGKCAYRASYSDGKLKAPPKPCAGNQGTQITVEDLFYNIATRRKALKNPSEEYGKILEVVGRYSVHNAGISFSVKKQGETVADVRTLPNASTVDNIRSIFGNAVSRELIEIGCEDKTLAFKMNGYISNANYSVKKCIFLLFINHRLVESTSLRKAIETVYAAYLPKNTHPFLYLSLEISPQNVDVNVHPTKHEVHFLHEESILERVQQHIESKLLGSNSSRMYFTQTLLPGLAGPSGEMVKSTTSLTSSSTSGSSDKVYAHQMVRTDSREQKLDAFLQPLSKPLSSQPQAIVTEDKTDISSGRARQQDEEMLELPAPAEVAAKNQSLEGDTTKGTSEMSEKRGPTSSNPRKRHREDSDVEMVEDDSRKEMTAACTPRRRIINLTSVLSLQEEINEQGHEVLREMLHNHSFVGCVNPQWALAQHQTKLYLLNTTKLSEELFYQILIYDFANFGVLRLSEPAPLFDLAMLALDSPESGWTEEDGPKEGLAEYIVEFLKKKAEMLADYFSLEIDEEGNLIGLPLLIDNYVPPLEGLPIFILRLATEVNWDEEKECFESLSKECAMFYSIRKQYISEESTLSGQQSEVPGSIPNSWKWTVEHIVYKALRSHILPPKHFTEDGNILQLANLPDLYKVFERC
partner: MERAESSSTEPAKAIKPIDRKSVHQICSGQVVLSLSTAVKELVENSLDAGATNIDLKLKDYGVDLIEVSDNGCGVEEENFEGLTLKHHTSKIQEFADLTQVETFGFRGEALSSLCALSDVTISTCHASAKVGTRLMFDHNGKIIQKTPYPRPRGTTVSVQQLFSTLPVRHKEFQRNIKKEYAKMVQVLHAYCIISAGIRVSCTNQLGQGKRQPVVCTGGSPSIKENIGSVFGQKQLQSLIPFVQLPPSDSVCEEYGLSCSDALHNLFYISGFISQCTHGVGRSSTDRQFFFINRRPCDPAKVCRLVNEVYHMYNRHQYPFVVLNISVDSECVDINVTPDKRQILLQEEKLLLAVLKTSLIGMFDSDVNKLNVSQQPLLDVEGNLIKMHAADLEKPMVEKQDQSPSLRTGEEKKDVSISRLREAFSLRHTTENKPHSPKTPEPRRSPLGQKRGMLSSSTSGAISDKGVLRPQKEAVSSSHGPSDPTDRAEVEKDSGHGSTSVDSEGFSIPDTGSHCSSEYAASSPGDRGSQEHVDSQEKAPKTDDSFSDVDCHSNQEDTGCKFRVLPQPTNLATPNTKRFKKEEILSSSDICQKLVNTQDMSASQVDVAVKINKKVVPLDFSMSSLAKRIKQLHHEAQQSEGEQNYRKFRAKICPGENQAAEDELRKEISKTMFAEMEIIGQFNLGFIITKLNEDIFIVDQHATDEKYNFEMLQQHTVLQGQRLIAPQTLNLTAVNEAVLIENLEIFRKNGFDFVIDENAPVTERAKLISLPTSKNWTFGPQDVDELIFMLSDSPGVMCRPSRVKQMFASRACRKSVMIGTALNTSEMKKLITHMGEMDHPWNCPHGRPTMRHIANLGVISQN
B2: DNA mismatch repair protein Mlh1 (Homo sapiens), P40692 (parent)
chain: B1 chain

Variants of: B1
Details: with pms2_human PMS2, P54278

Variant	effect of a mutation on the interaction
S44F	with no effect
V326A	with no effect
A128P	with no effect
P28L	with no effect
V185G	with no effect
I68N	with no effect
M35R	with no effect
C77Y	with no effect
G244D	with no effect
I107R	with no effect
G67R	with no effect
T117M	with no effect
T117R	with no effect

Variants of: B1
Details: with pms2_human PMS2, P54278
Remark: another data set of the same source

Variant	effect of a mutation on the interaction
S44F	disrupting interaction strength
R265H	with no effect
I32V	with no effect
V213M	with no effect
A128P	disrupting interaction strength
P28L	disrupting interaction strength
V185G	disrupting interaction strength
I68N	disrupting interaction strength
R217C	with no effect
M35R	disrupting interaction strength
C77Y	disrupting interaction strength
S406N	with no effect
G244D	disrupting interaction strength
I107R	disrupting interaction strength
I219V	with no effect
I219L	with no effect
G67R	disrupting interaction strength
T117M	disrupting interaction strength
T117R	disrupting interaction strength

Variants of: B1
Details: with pms2_human PMS2, P54278
Remark: another data set of the same source

Variant	effect of a mutation on the interaction
C77Y	decreasing interaction strength

Variants of: B2
Details: with exo1_human EXO1, Q9UQ84

Variant	effect of a mutation on the interaction
G244D	disrupting interaction strength
R265H	with no effect
P28L	disrupting interaction strength
I219V	with no effect
I219L	with no effect
S406N	with no effect
I32V	with no effect
V213M	with no effect
C77Y	disrupting interaction strength
R217C	with no effect
I68N	disrupting interaction strength
I107R	disrupting interaction strength
M35R	disrupting interaction strength
A128P	disrupting interaction strength
G67R	disrupting interaction strength
T117M	disrupting interaction strength
T117R	disrupting interaction strength
V185G	disrupting interaction strength
V326A	with no effect
S44F	disrupting interaction strength

Reference: IntAct's records for PubMed 12810663
